The record followed here is patent US6294333, “Fluorescent intensity assay for protein or peptide binding to nucleic acids” (Ingeneus Corp.).

Data set [1] has as its target T1, c-JUN mutant 14 DNA-binding domain peptide (K277I, C278D) (Homo sapiens, UniProt P05412 SEQ:1-132).
T1 chain: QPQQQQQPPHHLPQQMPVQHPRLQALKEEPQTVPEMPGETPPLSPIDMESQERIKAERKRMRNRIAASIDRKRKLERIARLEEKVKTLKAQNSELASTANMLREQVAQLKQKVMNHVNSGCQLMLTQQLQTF
The data set is described as follows: fluorescence quenching; no decrease at 200-400 ng. To be noted: chain copies: 2 (inferred); label: 5'-fluorescein both strands. Here is the method:
(§1) The c-JUN :DNA binding reaction mixture (30 μl) contained the following: 9.25 mM HEPES, pH 7.9, 2.23 mM MgCl_2, 0.03 mM EDTA, 50 mM NaCl, 5.0 mM DTT, 3.75% (v/v) glycerol, 0.15 μg/μl bovine serum albumin (BSA), 0–2.0 μg pure c-JUN protein (Promega, Madison, Wis.) or 0–400 ng pure c-JUN peptide, and 0.075 pmole 5'-fluorescein labeled dsDNA oligonucleotide. When full-length c-JUN was used, 3 ng/μl poly(dI)-poly(dC) was included in the reaction mix, and added before the addition of protein and fluorescein-labeled DNA. The examples in FIGS. 1B and 1D contained 50 mM KCl in lieu of 50 mM NaCl. Wild-type and mutant c-JUN DNA-binding domain peptides were generously supplied by Dr. Dirk Bohmann (European Molecular Biology Laboratory, Heidelberg, Germany). The reaction mixtures were incubated at 21° C. for 30 minutes, placed into a quartz cuvette, irradiated with an argon ion laser beam having a wavelength of 488 nm and monitored for fluorescent emission.
The specificity of the laser binding assay was further tested by reacting a mutant c-JUN DNA-binding domain peptide with wild-type or mutant DNA. Specific mutations in the basic domain of c-JUN abolish DNA binding without affecting dimerization, whereas specific mutations in the leucine zipper prevent both dimerization and DNA binding.

For the next data set, the target named is Sp1 full length (UniProt P08047 P08047:2-785). The data set can be described thus: fluorescence quenching; 200 ng Sp1, no decrease. The following applies: tags: Promega; label: 5'-fluorescein both strands. Here is the method: The Sp1:DNA binding reaction mixture (30 µl) contained the following: 25 mM HEPES, pH 7.8, 100mM KCl, 100 µM ZnSO_4, 1 mM DTT, 20% (v/v) glycerol, 0.05 µg/µl BSA, 0–200 ng pure Sp1 protein (Promega) and 0.1 pmole 5'-fluorescein labeled dsDNA oligonucleotide. The reaction mixes were incubated at 0° C. for […], placed into a quartz cuvette, irradiated with an argon ion laser beam having a wavelength of 488 nm and monitored for fluorescent emission.
When 200 ng Sp1 was reacted with 0.1 pmole mutant JD13F/14F, no decrease in fluorescent intensity was observed (FIG. 4B), indicating non-binding of protein to the mutated DNA sequence. These studies confirmed the specificity of the laser detection assay for a completely different class of DNA-binding proteins.

The target in a further data set is c-JUN full length (Homo sapiens, UniProt P05412 P05412:1-331). The data set can be described thus: fluorescence quenching; no decrease in NaCl or KCl, 21 C. To be noted: tags: Promega; 340 aa; chain copies: 2 (stated homodimer); label: 5'-fluorescein both strands. Here is the method: as §1
These mutant DNA binding studies confirm the specificity of both the c-JUN:wild-type DNA binding conditions and the laser detection method.

Data set [2] addresses c-JUN DNA-binding domain peptide (wild-type) (Homo sapiens, UniProt P05412 SEQ:1-132). The data set can be described thus: fluorescence quenching; minor increase in intensity at 20-200 ng. The following applies: chain copies: 2 (inferred); label: 5'-fluorescein both strands. Here is the method: as §1

Chain of Sp1 full length (P08047 2-785, one chain of several): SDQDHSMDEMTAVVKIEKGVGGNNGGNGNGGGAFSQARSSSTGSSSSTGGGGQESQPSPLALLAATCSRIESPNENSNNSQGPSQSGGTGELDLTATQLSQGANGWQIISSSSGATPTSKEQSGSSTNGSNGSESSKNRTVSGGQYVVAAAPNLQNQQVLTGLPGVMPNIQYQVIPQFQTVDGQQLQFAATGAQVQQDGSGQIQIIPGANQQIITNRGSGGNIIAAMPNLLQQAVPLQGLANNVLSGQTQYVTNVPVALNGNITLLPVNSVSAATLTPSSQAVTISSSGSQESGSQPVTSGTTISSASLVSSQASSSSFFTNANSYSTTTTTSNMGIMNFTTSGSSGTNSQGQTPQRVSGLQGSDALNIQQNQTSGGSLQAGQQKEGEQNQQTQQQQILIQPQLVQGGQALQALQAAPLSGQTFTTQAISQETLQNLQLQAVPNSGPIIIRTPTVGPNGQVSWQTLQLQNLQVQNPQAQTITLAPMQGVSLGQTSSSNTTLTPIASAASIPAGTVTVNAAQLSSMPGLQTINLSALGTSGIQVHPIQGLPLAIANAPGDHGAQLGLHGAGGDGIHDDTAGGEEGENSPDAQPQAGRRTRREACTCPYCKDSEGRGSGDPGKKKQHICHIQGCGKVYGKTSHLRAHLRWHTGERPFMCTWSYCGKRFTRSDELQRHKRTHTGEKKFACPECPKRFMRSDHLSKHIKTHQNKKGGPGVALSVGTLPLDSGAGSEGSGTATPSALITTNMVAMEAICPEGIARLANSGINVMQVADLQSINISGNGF

B1: JD1F/2F (dsDNA)
DNA 1: GTGTCTGACTCATGCTT
DNA 2: AAGCATGAGTCAGACAC
For B1, the binding result in data set [1] is listed as “no binding”.

B2: JD13F/14F (dsDNA)
DNA 1: CCGGCCTAAATAGGGCTTTT
DNA 2: AAAAGCCCTATTTAGGCCGG
As for B2, the binding result with Sp1 full length was “no binding”.

B3: JD3F/4F (dsDNA)
DNA 1: GTGTCTTACTCATGCTT
DNA 2: AAGCATGAGTAAGACAC
On to B3, for which the binding result (with c-JUN full length; in data set [2]; in data set [1]) was “no binding” each time.
